Key:
[1] = target: T1, RXRA ΔAB;RARA ΔAB (Mus musculus;Mus musculus, UniProt P28700;P11416 135-467;84-462, |); experiment: FRET titration
T1 sequence 1: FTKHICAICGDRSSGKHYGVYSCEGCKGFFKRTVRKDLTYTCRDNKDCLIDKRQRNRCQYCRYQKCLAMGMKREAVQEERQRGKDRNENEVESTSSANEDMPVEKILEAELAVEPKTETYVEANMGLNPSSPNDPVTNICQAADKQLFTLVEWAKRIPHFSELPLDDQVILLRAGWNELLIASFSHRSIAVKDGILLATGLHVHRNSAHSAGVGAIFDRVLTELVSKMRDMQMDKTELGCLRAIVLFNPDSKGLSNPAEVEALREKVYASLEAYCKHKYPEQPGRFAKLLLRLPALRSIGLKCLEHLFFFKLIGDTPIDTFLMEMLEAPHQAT
T1 sequence 2: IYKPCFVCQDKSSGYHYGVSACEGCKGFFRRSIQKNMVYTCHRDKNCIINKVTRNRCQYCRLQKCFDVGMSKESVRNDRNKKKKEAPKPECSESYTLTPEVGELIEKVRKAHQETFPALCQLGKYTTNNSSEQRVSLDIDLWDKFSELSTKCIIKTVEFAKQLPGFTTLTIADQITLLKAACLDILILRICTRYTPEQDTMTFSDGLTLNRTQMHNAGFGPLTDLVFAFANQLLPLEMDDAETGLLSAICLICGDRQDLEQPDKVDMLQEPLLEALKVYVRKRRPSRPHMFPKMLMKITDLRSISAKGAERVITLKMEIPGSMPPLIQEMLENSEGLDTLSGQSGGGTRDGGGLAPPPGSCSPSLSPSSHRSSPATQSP

[2] = target: T2, HsRARA DBD (82–167) (human, UniProt P10276 82-167); experiment: crystal structure
T2 sequence (looked up): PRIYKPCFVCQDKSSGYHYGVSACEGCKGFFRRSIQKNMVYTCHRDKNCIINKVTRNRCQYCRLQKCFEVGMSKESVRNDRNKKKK

[3] = target: RXRA DBD (Homo sapiens, UniProt P19793 130-212); experiment: X-ray crystallography
[4] = target: T3, RXRA ΔAB;RARA ΔABF (Mus musculus;Mus musculus, UniProt P28700;P11416 135-467;84-421, |); experiment: SEC-SAXS/RALLS
T3 sequence 1: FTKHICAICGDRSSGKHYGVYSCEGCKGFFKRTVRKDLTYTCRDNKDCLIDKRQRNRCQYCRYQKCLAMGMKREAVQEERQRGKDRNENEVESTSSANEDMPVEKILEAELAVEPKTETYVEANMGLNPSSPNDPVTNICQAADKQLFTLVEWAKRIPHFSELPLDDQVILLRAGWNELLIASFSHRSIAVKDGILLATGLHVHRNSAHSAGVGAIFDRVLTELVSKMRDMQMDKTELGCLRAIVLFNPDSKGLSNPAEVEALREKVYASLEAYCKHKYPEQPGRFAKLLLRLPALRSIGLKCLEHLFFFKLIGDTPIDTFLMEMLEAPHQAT
T3 sequence 2: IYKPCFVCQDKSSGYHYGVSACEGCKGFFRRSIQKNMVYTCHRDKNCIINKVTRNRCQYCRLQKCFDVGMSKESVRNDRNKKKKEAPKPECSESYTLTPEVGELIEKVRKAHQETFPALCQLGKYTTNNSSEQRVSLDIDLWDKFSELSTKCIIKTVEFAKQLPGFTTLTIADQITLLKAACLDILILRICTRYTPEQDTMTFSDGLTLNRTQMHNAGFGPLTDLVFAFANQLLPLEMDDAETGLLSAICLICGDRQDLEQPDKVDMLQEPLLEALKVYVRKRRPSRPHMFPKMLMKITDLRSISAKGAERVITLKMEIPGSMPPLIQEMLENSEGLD

[5] = target: RXRA DBD;RARA DBD (Homo sapiens;Homo sapiens, UniProt P19793;P10276 130-212;82-167, |); experiment: X-ray crystallography
[6] = target: T1, RXRA ΔAB;RARA ΔAB; experiment: HDX-MS

B1: Socs3 DR0 (dsDNA)
DNA 1: AGGGGTCAAGGTCAAA
DNA 2: TTTGACCTTGACCCCT
Question: B1 was tested. Which Kd [1] did it give?
Answer: 2700 nM

B2: Ramp2 DR1 (dsDNA)
DNA 1: TGAGTTCAAGGGTCAAT
DNA 2: ATTGACCCTTGAACTCA
Question: B2 was tested. Which Kd [1] did it give?
Answer: 500 nM

B3: HsRXRA DBD (130–212) (domain or fragment, human, UniProt P19793 130-212, looked up)
chain: FTKHICAICGDRSSGKHYGVYSCEGCKGFFKRTVRKDLTYTCRDNKDCLIDKRQRNRCQYCRYQKCLAMGMKREAVQEERQRG
Question: Does B3 bind [2]?
Answer: binds

B4: Hoxb13 DR0 (crystal) (dsDNA)
DNA 1: GAAGGTCAAGGCCAAG
DNA 2: CTTGGCCTTGACCTTC
Question: Does B4 bind [3]?
Answer: binds

B5: F11r DR5 (dsDNA)
DNA 1: AGGGGTCAAGCCAGGTTCACT
DNA 2: AGTGAACCTGGCTTGACCCCT
Question: Does B5 bind [4]?
Answer: binds

B6: Rarb2 DR5 (crystal) (dsDNA)
DNA 1: AGGGTTCACCGAAAGTTCACT
DNA 2: AGTGAACTTTCGGTGAACCCT
Question: Does B6 bind [5]?
Answer: binds

B7: Rarb2 DR5 TAMRA (dsDNA)
DNA 1: AGGGTTCACCGAAAGTTCACT
DNA 2: AGTGAACTTTCGGTGAACCCT
Question: How did the Kd [1] turn out when B7 was run?
Answer: 800 nM

B8: Hoxb13 DR0 unlabelled (SAXS, HDX) (dsDNA)
DNA 1: GAAGGTCAAGGCCAAG
DNA 2: CTTGGCCTTGACCTTC
Question: Does B8 bind [4]?
Answer: binds

Question: Does B8 bind [6]?
Answer: binds
